Assay results taken from article PMC6224480, “Insights into Kinesin-1 Activation from the Crystal Structure of KLC2 Bound to JIP3” (Structure(London, England:1993), 2018).
*: point of attachment. FITC = O=C1OC2(c3ccc(O)cc3Oc3cc(O)ccc32)c2ccc(NC(=S)*)cc21

Tests used:
Experiment in all cases: ITC; FITC-CSTN-WD2 peptide as titrant (380 uM) into wild-type or mutant KLC2^TPR-myc (44-50 uM) in the cell; 25 C; 0.1 M NaCl, 25 mM HEPES, 1 mM TCEP, pH 7.5; 2-3 experiments globally fitted with the model A + B -> AB; apparent stoichiometry Napp
[1] = biological target: KLC2^TPR-myc Tyr^208Ala mutant (mouse) (UniProt O88448)
[2] = biological target: KLC2^TPR-myc Thr^200Asp mutant (mouse) (UniProt O88448)
[3] = biological target: KLC2^TPR-myc (kinesin light chain 2 TPR domain, wild type, C-terminal myc tag) (mouse) (UniProt O88448)

- Ka [1]: 541000 M⁻¹
- stoichiometry N [1]: 0.67
- Ka [2]: 845000 M⁻¹
- stoichiometry N [2]: 0.71
- Ka [3]: 820000 M⁻¹
- stoichiometry N [3]: 0.67
Binder: {FITC}-TRQLEWDDSTL-OH [FITC-labeled CSTN(WD2) peptide (FITC-…-COOH)]
